{"source": "patent US20250189530A1", "about": "(STCUBE, published 2025)", "binders": {"B1": {"name": "STC43H11-1 (antibody, V domains shown)", "VH": "QSLEESGGRLVTPGGSLTLTCTVSGIDLSSYAMGWVRQAPGEGLEWIGSIGTGGGTGYASWAKGRFTISKTSTTVDLKMTSLTASDTATYFCATSNLWGPGTLVTVSS", "VL": "QVLTQTASPVSAAVGGTVTINCQASQSVYNNNRCSWFQQKPGQPPKRLIYHTSTLDSGVPSRFKGSGSGTQFTLTISDVQCDDAATYYCLGNYDCSRADCAAFGGGTEVVVK", "notes": "From immunized New Zealand rabbits; IgG heavy chain and Kappa light chain; also called clone #43H11; Clone 43H11"}}, "key": {"[1]": {"molecular_target": "T1, CILK1 peptide AQPVHGRTDWASKYA", "T1 construct": "also called serine/threonine-protein kinase ICK (CILK) isoform 2 peptide", "T1 peptide": "AQPVHGRTDWASKYA", "test": "SPR sensorgrams (Response in RU), 15.625, 31.25, 62.5, 125 and 500 nM"}, "[2]": {"molecular_target": "T2, LDHB peptide VIKLKGYTNWAIGLS", "T2 construct": "also called l-lactate dehydrogenase B chain (LDHB) isoform X1 peptide", "T2 peptide": "VIKLKGYTNWAIGLS", "test": "SPR sensorgrams (Response in RU), series 15.625-500 nM"}, "[3]": {"molecular_target": "T3, MALRD1 peptide TQDSEDDLDWAIGSR", "T3 construct": "also called MAM and LDL-receptor class A domain-containing protein 1 isoform X1 peptide", "T3 peptide": "TQDSEDDLDWAIGSR", "test": "SPR sensorgrams (Response in RU), series 15.625-500 nM"}, "[4]": {"molecular_target": "T4, TRIM11 peptide", "T4 peptide": "EVEVGDRTSWALGVC", "test": "kinetics of peptide on STC43H11-1, separate assay, method not named"}, "[5]": {"molecular_target": "T5, BTN1A1 peptide 4 Mutant 6 (D366A) (human)", "T5 construct": "The entry already carries the mutation; also called BTN1A1-pep4- Mutant 6; mutant peptide #6", "T5 peptide": "EVEVGARTDWAIGVC", "test": "kinetics of peptide on STC43H11-1, separate assay, method not named"}, "[6]": {"molecular_target": "T6, BTN1A1 peptide 4 Mutant 9 (D369A) (human)", "T6 construct": "The entry already carries the mutation; also called BTN1A1-pep4- Mutant 9", "T6 peptide": "EVEVGDRTAWAIGVC", "test": "kinetics of peptide on STC43H11-1, separate assay, method not named"}, "[7]": {"molecular_target": "T7, BTN1A1 peptide 4 Mutant 8 (T368A) (human)", "T7 construct": "The entry already carries the mutation; also called BTN1A1-pep4- Mutant 8", "T7 peptide": "EVEVGDRADWAIGVC", "test": "kinetics of peptide on STC43H11-1, separate assay, method not named"}, "[8]": {"molecular_target": "T8, BTN1A1 peptide 4 Mutant 12 (I372A) (human)", "T8 construct": "The entry already carries the mutation; also called Mutant 12 (1372A); BTN1A1-pep4- Mutant 12", "T8 peptide": "EVEVGDRTDWAAGVC", "test": "kinetics of peptide on STC43H11-1, separate assay, method not named"}, "[9]": {"molecular_target": "T9, BTN1A1 peptide 4 Mutant 10 (W370A) (human)", "T9 construct": "The entry already carries the mutation; also called BTN1A1-pep4- Mutant 10; mutant peptide #10", "T9 peptide": "EVEVGDRTDAAIGVC", "test": "kinetics of peptide on STC43H11-1, separate assay, method not named"}, "[10]": {"molecular_target": "T10, BTN1A1 peptide 4 Mutant 7 (R367A) (human)", "T10 construct": "The entry already carries the mutation; also called BTN1A1-pep4- Mutant 7", "T10 peptide": "EVEVGDATDWAIGVC", "test": "kinetics of peptide on STC43H11-1, separate assay, method not named"}, "[11]": {"molecular_target": "T11, BTN1A1 peptide 4 Mutant 5 (G365A) (human)", "T11 construct": "The entry already carries the mutation; also called BTN1A1-pep4- Mutant 5", "T11 peptide": "EVEVADRTDWAIGVC", "test": "kinetics of peptide on STC43H11-1, separate assay, method not named"}, "[12]": {"molecular_target": "T12, BTN1A1 Peptide 4 (human)", "T12 construct": "also called BTN1A1-pep4- WT; Pep4", "T12 peptide": "EVEVGDRTDWAIGVC", "test": "kinetics of peptide on STC43H11-1, separate assay, method not named"}, "[13]": {"molecular_target": "T13, denatured hBTN1A1 ICD (human, UniProt Q13410 270-526)", "T13 construct": "Same protein as hBTN1A1 ICD, denatured before the ELISA; also called hBTN1A1 ICD denatured; Denatured ICD", "T13 sequence": "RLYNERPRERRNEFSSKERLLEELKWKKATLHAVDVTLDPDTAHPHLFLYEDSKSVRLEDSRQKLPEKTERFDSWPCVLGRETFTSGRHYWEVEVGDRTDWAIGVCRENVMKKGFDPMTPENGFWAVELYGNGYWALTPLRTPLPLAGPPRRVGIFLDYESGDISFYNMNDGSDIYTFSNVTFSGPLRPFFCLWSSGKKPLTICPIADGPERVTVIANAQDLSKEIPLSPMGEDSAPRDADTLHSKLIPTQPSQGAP", "test": "ELISA clone screen, STCube"}, "[14]": {"molecular_target": "T12, BTN1A1 Peptide 4", "test": "ELISA clone screen, STCube"}, "[15]": {"molecular_target": "T14, hBTN1A1 ICD (human, UniProt Q13410 270-526)", "T14 sequence": "T13 sequence", "test": "ELISA clone screen, STCube"}, "[16]": {"molecular_target": "T13, denatured hBTN1A1 ICD", "test": "ELISA, stock solution"}, "[17]": {"molecular_target": "T12, BTN1A1 Peptide 4", "test": "ELISA, stock solution"}, "[18]": {"molecular_target": "T14, hBTN1A1 ICD", "test": "ELISA, stock solution"}}, "data": [{"binder": "B1", "values": [{"measurement": "binding result", "setting": "[1]", "result": "no binding (tested: 500 nM)"}, {"measurement": "binding result", "setting": "[2]", "result": "no binding (tested: 500 nM)"}, {"measurement": "binding result", "setting": "[3]", "result": "no binding (tested: 500 nM)"}, {"measurement": "Kd", "setting": "[4]", "result": 621, "unit": "nM"}, {"measurement": "koff", "setting": "[4]", "result": 0.1, "unit": "s⁻¹"}, {"measurement": "kon", "setting": "[4]", "result": 162000, "unit": "M⁻¹ s⁻¹"}, {"measurement": "Kd", "setting": "[5]", "result": 13.5, "unit": "nM"}, {"measurement": "koff", "setting": "[5]", "result": 0.00082, "unit": "s⁻¹"}, {"measurement": "kon", "setting": "[5]", "result": 60900, "unit": "M⁻¹ s⁻¹"}, {"measurement": "Kd", "setting": "[6]", "result": 39.1, "unit": "nM"}, {"measurement": "koff", "setting": "[6]", "result": 0.0101, "unit": "s⁻¹"}, {"measurement": "kon", "setting": "[6]", "result": 258000, "unit": "M⁻¹ s⁻¹"}, {"measurement": "Kd", "setting": "[7]", "result": 1.77, "unit": "nM"}, {"measurement": "koff", "setting": "[7]", "result": 0.000822, "unit": "s⁻¹"}, {"measurement": "kon", "setting": "[7]", "result": 464000, "unit": "M⁻¹ s⁻¹"}, {"measurement": "Kd", "setting": "[8]", "result": 10.6, "unit": "nM"}, {"measurement": "koff", "setting": "[8]", "result": 0.000778, "unit": "s⁻¹"}, {"measurement": "kon", "setting": "[8]", "result": 73600, "unit": "M⁻¹ s⁻¹"}, {"measurement": "Kd", "setting": "[9]", "result": 4.95, "unit": "nM"}, {"measurement": "koff", "setting": "[9]", "result": 0.00106, "unit": "s⁻¹"}, {"measurement": "kon", "setting": "[9]", "result": 215000, "unit": "M⁻¹ s⁻¹"}, {"measurement": "Kd", "setting": "[10]", "result": 0.339, "unit": "nM"}, {"measurement": "koff", "setting": "[10]", "result": 0.000153, "unit": "s⁻¹"}, {"measurement": "kon", "setting": "[10]", "result": 453000, "unit": "M⁻¹ s⁻¹"}, {"measurement": "Kd", "setting": "[11]", "result": 1.72, "unit": "nM"}, {"measurement": "koff", "setting": "[11]", "result": 0.000146, "unit": "s⁻¹"}, {"measurement": "kon", "setting": "[11]", "result": 84800, "unit": "M⁻¹ s⁻¹"}, {"measurement": "Kd", "setting": "[12]", "result": 0.0844, "unit": "nM"}, {"measurement": "koff", "setting": "[12]", "result": "1.62e-05", "unit": "s⁻¹"}, {"measurement": "kon", "setting": "[12]", "result": 192000, "unit": "M⁻¹ s⁻¹"}, {"measurement": "ELISA signal", "setting": "[13]", "result": 0.111}, {"measurement": "ELISA signal", "setting": "[14]", "result": 0.945}, {"measurement": "ELISA signal", "setting": "[15]", "result": 1.98}, {"measurement": "ELISA signal", "setting": "[16]", "result": 2.87}, {"measurement": "ELISA signal", "setting": "[17]", "result": 2.88}, {"measurement": "ELISA signal", "setting": "[18]", "result": 2.93}]}]}
